Measured values from patent US20090317396A1 (AJOU UNIVERSITY INDUSTRY ACADEMIC COOPERATION FOUNDATION, published 2009).

Assays:
TNFR1 [1] = biological target: T1, TNFR1 (UniProt P19438 30-211, limits assumed); experiment: SPR (Biacore 2000): TNFR1 immobilised on a CM5 chip, HW1 injected
T1 sequence (looked up): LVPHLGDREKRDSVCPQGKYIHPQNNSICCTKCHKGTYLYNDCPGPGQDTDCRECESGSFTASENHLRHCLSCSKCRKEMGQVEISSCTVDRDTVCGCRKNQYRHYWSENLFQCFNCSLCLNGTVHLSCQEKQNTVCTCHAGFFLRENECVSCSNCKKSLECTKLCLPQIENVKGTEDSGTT

[2] = biological target: T2, death decoy receptor 1 (DcR1) (UniProt O14798 26-221, limits assumed); experiment: SPR (Biacore 2000): DcR1 immobilised on a CM5 chip, HW1 injected
T2 sequence (looked up): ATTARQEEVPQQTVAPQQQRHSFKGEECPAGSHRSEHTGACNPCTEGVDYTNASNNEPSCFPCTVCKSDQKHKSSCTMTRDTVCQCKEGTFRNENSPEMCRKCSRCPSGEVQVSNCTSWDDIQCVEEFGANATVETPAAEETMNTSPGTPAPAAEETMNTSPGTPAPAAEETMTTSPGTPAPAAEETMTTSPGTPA

death receptor 5 (DR5) = biological target: T3, death receptor 5 (DR5) (UniProt O14763 52-182, limits assumed); experiment: SPR (Biacore 2000), DR5 immobilised on CM5 chip, scFv injected, 25° C.
T3 construct: Purified antigen immobilised on CM5 chip or coated on ELISA plates; also called TRAIL receptor 2; TRICK2

death receptor 4 (DR4) [3] = biological target: T4, death receptor 4 (DR4) (UniProt O00220 24-239, limits assumed); experiment: SPR (Biacore 2000), antigen immobilised on CM5 chip
T4 construct: also called TRAIL receptor 1

TNFR2 = biological target: T5, TNFR2 (UniProt P20333 23-257); experiment: as above
T5 sequence (looked up): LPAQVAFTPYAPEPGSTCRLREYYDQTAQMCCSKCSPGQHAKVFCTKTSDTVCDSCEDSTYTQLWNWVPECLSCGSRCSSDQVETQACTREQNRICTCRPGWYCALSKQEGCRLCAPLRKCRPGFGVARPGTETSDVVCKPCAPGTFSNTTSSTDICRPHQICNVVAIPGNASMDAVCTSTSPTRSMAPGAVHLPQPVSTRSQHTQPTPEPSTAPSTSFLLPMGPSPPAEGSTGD

DcR2 = biological target: T6, DcR2 (UniProt Q9UBN6 56-211); experiment: as above
T6 construct: also called death decoy receptor 2
T6 sequence (looked up): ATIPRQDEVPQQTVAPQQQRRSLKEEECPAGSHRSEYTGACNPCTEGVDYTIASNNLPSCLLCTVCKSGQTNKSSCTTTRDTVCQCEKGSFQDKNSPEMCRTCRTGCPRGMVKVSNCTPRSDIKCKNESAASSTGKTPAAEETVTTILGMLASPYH

CD95 [4] = biological target: T7, CD95 (UniProt P25445 26-173); experiment: SPR (Biacore 2000): CD95 immobilised on a CM5 chip, HW1 injected
T7 sequence (looked up): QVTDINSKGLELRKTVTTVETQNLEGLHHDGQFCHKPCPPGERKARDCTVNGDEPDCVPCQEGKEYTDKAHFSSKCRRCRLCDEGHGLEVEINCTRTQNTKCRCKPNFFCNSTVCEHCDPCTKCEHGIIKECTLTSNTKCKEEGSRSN

TNFR1 [5] = biological target: T1, TNFR1; experiment: SPR (Biacore 2000): TNFR1 immobilised on a CM5 chip, HW6 injected
[6] = biological target: T2, death decoy receptor 1 (DcR1); experiment: SPR (Biacore 2000): DcR1 immobilised on a CM5 chip, HW6 injected
CD95 [7] = biological target: T7, CD95; experiment: SPR (Biacore 2000): CD95 immobilised on a CM5 chip, HW6 injected
death receptor 4 (DR4) [8] = biological target: T4, death receptor 4 (DR4); experiment: SPR (Biacore 2000): DR4 immobilised on a CM5 chip, HW6 injected

T3 sequence (O14763 52-182 limits assumed): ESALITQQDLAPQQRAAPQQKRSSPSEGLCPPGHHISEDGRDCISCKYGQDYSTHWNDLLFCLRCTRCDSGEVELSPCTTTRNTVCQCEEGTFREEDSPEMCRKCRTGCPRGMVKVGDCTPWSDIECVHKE
T4 sequence (O00220 24-239 limits assumed): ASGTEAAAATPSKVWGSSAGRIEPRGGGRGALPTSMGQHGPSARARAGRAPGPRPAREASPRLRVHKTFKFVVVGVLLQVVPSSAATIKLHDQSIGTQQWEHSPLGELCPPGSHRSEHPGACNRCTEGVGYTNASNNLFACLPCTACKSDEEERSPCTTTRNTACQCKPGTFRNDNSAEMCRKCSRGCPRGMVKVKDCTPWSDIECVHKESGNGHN

B1: HW1 anti-DR5 scFv antibody (scFv)
scFv: QVQLQQSGPGLVKPSQTLSLTCAISGDSVSSTTVAWDWIRQSPSRGLEWLGRTYYRSKWYNEYAVSVKSRITINVDTSKNQISLQLNSVTPEDTAVYYCAREPDAGRGAFDIWGQGTTVTSPLRWGRFGWRGLGRGWLRSPVTQSPGTLSLSPGERATLSCRASQSVSSSHLAWYQQKPGQAPRLLIYGASSRATGIPDRFSGSGSGTDFTLTISSLEPEDFAVYYCQQRSNWPPRAVFGQGTRLEIK
notes: Human scFv expressed in E. coli periplasm (PelB signal removed on export), purified, monomeric; not shown: C-terminal Flag tag from vector pKJ1; C-terminal 6xHis tag from vector pKJ1
**Q.** Does B1 bind (TNFR1 [1])?
**A.** Result: no binding

**Q.** Does B1 bind [2]?
**A.** Result: no binding

**Q.** What about the Kd (death receptor 5 (DR5)) of the same binder?
**A.** Its Kd is 202 nM.

**Q.** And the koff (death receptor 5 (DR5))?
**A.** The koff was 0.00471 s⁻¹.

**Q.** What about the kon (death receptor 5 (DR5)) of the same binder?
**A.** The kon was 23300 M⁻¹ s⁻¹.

**Q.** Does B1 bind (death receptor 4 (DR4) [3])?
**A.** Result: no binding (tested: up to 10 µM)

**Q.** Does B1 bind (TNFR2)?
**A.** Result: no binding (tested: up to 10 µM)

**Q.** Does B1 bind (DcR2)?
**A.** Result: no binding (tested: up to 10 µM)

**Q.** Does B1 bind (CD95 [4])?
**A.** Result: no binding

B2: HW6 anti-DR5 scFv antibody (scFv)
scFv: QVQLQQSGPGRVQPSQTLSLTCAISGDSVSNNNAAWYWIRQSPSRGLEWLGRTYYRSKWYNDYAVSVKSRITISPDTSKNQFSLQLNSVTPEDTAVYYCARRGDGNSYFDYWGQGTLVTVSSGILRWGRFGWRGLGRGWLEIVLTQSPGTLSLSPGERATLSCRASQSVSSGYVSWYRQKPGQAPRLLIYGASTRATGIPDRFSGSGSGTDFTLTISRLEPEDFAVYYCHQYGSSPNTYGQGTKVGIK
notes: Human scFv expressed in E. coli periplasm, purified, monomeric; not shown: C-terminal Flag tag from vector pKJ1; C-terminal 6xHis tag from vector pKJ1
**Q.** Does B2 bind (TNFR1 [5])?
**A.** Result: no binding

**Q.** Does B2 bind [6]?
**A.** Result: no binding

**Q.** And the Kd (death receptor 5 (DR5))?
**A.** Its Kd is 54.5 nM.

**Q.** What about the koff (death receptor 5 (DR5)) of the same binder?
**A.** The koff was 0.00688 s⁻¹.

**Q.** What about the kon (death receptor 5 (DR5)) of the same binder?
**A.** Its kon is 126000 M⁻¹ s⁻¹.

**Q.** Does B2 bind (TNFR2)?
**A.** Result: no binding (tested: up to 10 µM)

**Q.** Does B2 bind (DcR2)?
**A.** Result: no binding (tested: up to 10 µM)

**Q.** Does B2 bind (CD95 [7])?
**A.** Result: no binding

**Q.** Does B2 bind (death receptor 4 (DR4) [8])?
**A.** Result: no binding
